Assay results taken from the supplement of paper PMC12042874.
± gives the uncertainty stated by the source.

Assay: amyloid nucleation score (Sup35N fusion, yeast selection) (log enrichment); library NNK1; higher = more nucleation; inactive = no reads after selection
Procedure, shortened: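 Sup35N fusions to peptides of 20 random codons were expressed in psi-negative yeast, induced 24 hours with 100 μM copper sulfate, and grown 7 days at 30°C on medium lacking adenine and uracil. Input and output plasmid inserts were sequenced by Illumina. The nucleation score is the DiMSum log enrichment of output over input reads, centred on the mode score of non-aggregating sequences. Sequences with under 100 input reads were excluded.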

Substance	amyloid nucleation score
GVTYKPYGVSNW	-0.616 ± 0.69
GVVCCTANF	5.68 ± 0.065
GVVGYGIWHSLGVRLIQNLC	0.389 ± 0.93
GVYARQIFYNS	0.021 ± 0.24
GWDYLFFLFTFCYV	-0.771 ± 1.1
GWQDSLYLYYFTKFCRNQGG	-0.559 ± 0.46
GWQGL	-0.202 ± 0.53
GYAFVY	-0.037 ± 0.52
GYCTPNDPVIFWDFRVMTGS	-0.544 ± 0.3
GYELSMKATIRVVCRAIYFC	0.62 ± 0.41
GYGNRNLALARGMLGQIL	0.215 ± 0.46
GYGWHLSANNPVSNIRCPRA	-0.407 ± 0.42
GYLSHII	-0.112 ± 0.51
GYMSKLEYLPTQLYLLSLRE	0.85 ± 0.44
GYNMTKAYQCVCFIGDLPGT	4.61 ± 0.13
GYNSVYHLSNVALR	0.928 ± 0.32
GYNWGFVHCSYRSSHFGSGF	0.348 ± 0.26
GYSAYRFGQCMSETGRRRIH	1.42 ± 0.72
GYSGLLYVSRVVSYLIHFWV	0.702 ± 0.47
GYSNFTNYLFQ	0.091 ± 0.28
GYTLRPNERPKIRQV	0.244 ± 0.63
HAFFHYWPVCQWV	4.57 ± 0.1
HATMVSALLVWGW	-0.286 ± 1.9
HCFYYCMANRL	0.488 ± 0.24
HCIPLALICGGSSSPVVEYL	0.686 ± 0.43
HCLSFMIFESNLIIFMNRIR	0.222 ± 0.2

Substance	amyloid nucleation score
HCMGGNLFLF	-0.463 ± 0.47
HCPELLLPPSKCTIINGNDK	1.52 ± 0.38
HCPKAVGINEWPEMRFYVNL	-0.05 ± 0.96
HDFYEDIVMEYVL	1.55 ± 0.51
HDIAIMSSVGFSTAHDICSE	0.26 ± 0.99
HDPDPVDYGCGWVSVSCGVA	0.819 ± 0.82
HDSSF	-0.038 ± 0.56
HESNMSMYYERYMLLSRNGS	0.269 ± 0.23
HFAPLFDYNLTGIKTLKTAD	0.1 ± 0.77
HFASRLMRKEFAVRFLRGFS	-0.608 ± 1.2
HFCMGWVYLPELMYRFYMCF	-0.494 ± 0.35
HFFDCHNSIEVSLISSCVCV	3.97 ± 0.065
HFFNVYGSNMVISSWDSRCE	6.23 ± 0.076
HFLVKCLLLLSVSSKLCVSR	0.564 ± 0.33
HFLVMITRL	5.15 ± 0.091
HFNFNFAQSRNEMLVASG	-1.16 ± 1.6
HFSGYMFCNPLTSGIVNATW	6.404 ± 0.045
HFSNIDNARNCSDSYWRYGI	0.168 ± 0.3
HGLLHQVSVMPGIPSMAFNI	-0.016 ± 0.68
HGMWNGFTILM	3.26 ± 0.11
HHKPRPNIQFFRYSCKERAS	0.035 ± 1
HHLVISCDSLENASYRLCIQ	1.45 ± 0.43
HHPYFSAMM	0.22 ± 0.54
HHTQE	-0.557 ± 1.6
HIGIWTIPSRKEGR	inactive
HIKASDFIW	-0.333 ± 0.31

Substance	amyloid nucleation score
HIMRDV	-1.13 ± 1.4
HIMYSLKASSHWSPIVFSHH	0.669 ± 0.59
HIPYVYGPIIRGEATYTEGV	-0.29 ± 1.2
HIVNCVKML	0.788 ± 0.63
HKCWVDGIVY	0.577 ± 0.48
HKTSKMLCLSI	0.241 ± 0.9
HLEGFYLGIWHGRSRVFSRN	2.77 ± 0.23
HLGGVWLLIHMRRSFPLDIW	0.207 ± 0.7
HLGLSNPFMMSFHV	-0.189 ± 0.34
HLLSGMITCDDLHGCGLEGI	0.344 ± 0.35
HLRCCIKTLRVSHYGGPALR	-0.596 ± 0.37
HLRNLKDFNVQPF	0.635 ± 1.2
HLVKHVLCSKCTFDVLIIIY	1.08 ± 0.21
HLVRRLYSKWMQT	-0.711 ± 0.96
HLWSFAEMLNNHAVEDCVCT	inactive
HMISVDITLVSLWRRIL	-0.402 ± 0.81
HMVFQVKFWTNHRQVFSLPY	2.91 ± 0.14
HMVHGMFY	-0.251 ± 0.7
HMWIEFSAVLFSYDMASSNV	-0.417 ± 0.52
HMWSESQIVGRLYVYRNIVV	0.747 ± 0.81
HNKVATMW	1.46 ± 0.25
HNLRVIFCY	0.421 ± 0.58
HNMGWLFLLAVYLQMFT	-0.765 ± 1.1
HNWCRSSRRVVMSFMCKTKL	0.412 ± 1.1
HPFYIFAVYIFPYHCLSCSL	0.331 ± 0.33
HPYIWSVPDYKPFRAQAARV	-0.029 ± 1.6

Substance	amyloid nucleation score
HQLLTVL	-0.997 ± 0.28
HRLKTYIMVSFIYRADAVGI	4.89 ± 0.068
HRLRLSVVRAIYDTQIHQRA	-0.043 ± 0.34
HRNWCCCCSCWSRLKMHLEL	-1.32 ± 0.64
HRPYLCGISYGGSRCELYTA	0.839 ± 0.75
HRSTVAKSTRKLPGICSVFW	0.845 ± 0.8
HRSYHYMLLHTLEDRCRKN	inactive
HSCRMYYSQRIYIPSNDGSD	1.68 ± 0.29
HSDCRFRKLGRTHTSMRVCC	0.096 ± 0.49
HSDFQDFMTDFGHDAFFKDW	0.096 ± 0.4
HSFFMFP	-0.39 ± 0.73
HSGYTYDRRYPCNYDFSIQV	inactive
HSKLFFLWHPWWL	inactive
HSVSRCLVNEGNGFSFCKDP	1.45 ± 0.39
HSYCLLLWYG	-1.74 ± 1.9
HTGIIVKEVAQL	-0.507 ± 1.9
HTNVWGGAHYTSIKAN	0.581 ± 0.31
HVCSFLQAGAHWRRVAVCAG	0.124 ± 0.73
HVFCQRGCCERRLKIYISVS	-1.45 ± 0.57
HVLADHYTMRGTNFVGYFHL	4.88 ± 0.069
HVLHNWSDHDRN	1.23 ± 0.55
HVLLYCANFVIYTDVA	2.45 ± 0.26
HVLTQRRRMSFTVTRYHKRI	1.1 ± 0.52
HVMIFVIFPENYNICTFMKY	2.29 ± 0.2
HVNFNKGRMGGADSAVRCWW	-1.52 ± 1.8
HVNLLNRTLCK	0.151 ± 0.9

Substance	amyloid nucleation score
HVTMKMIASSTMLDQHSWAR	-0.065 ± 0.32
HVVVHDGSTQLWDARVRKWP	0.558 ± 0.64
HWCCIKSVGCIWIRKSVTRC	0.204 ± 0.43
HWNHYWQ	-0.07 ± 0.46
HWRTCCWQEMLLMSALSRQG	-0.252 ± 0.46
HWTYWIRI	-0.084 ± 1.6
HYRYGGLAMFLVWIEMFLYW	0.407 ± 1.1
HYSRDSLVVWYI	-0.228 ± 0.56
HYVFRHAWDSSFDVNVGLAQ	0.564 ± 0.9
IAIFKYVKRDSSGKNCLSRS	-0.242 ± 0.25
IAIFMYCM	7.467 ± 0.055
IAILNLDNLGGYGCNCFHYF	4.23 ± 0.13
IALRL	0.91 ± 0.4
IAMSSYPLD	1.02 ± 1.1
IARFHTDSYHYRY	-0.08 ± 1.1
IARYSTVYPVPHNCRNHKHS	0.15 ± 1.1
IASDRFF	0.77 ± 0.97
IATNRGMCLGLRVSGLDMAR	1.13 ± 0.49
IAYGSINCGFNRL	1.18 ± 0.32
IAYLNKAKNLFLC	inactive
ICACIMELCSLLHGIRGM	-0.378 ± 1.4
ICFFGLDVNFTRLSTVTRFT	2.66 ± 0.16
ICILLFGVRSDCM	1.44 ± 0.37
ICSNGRARPGNMSV	-0.047 ± 1.7
ICVMSPGMESCGLVFGAWYT	0.61 ± 0.56
